# Laboratory results reported in publication PMC9274624.
# Assays:
# [1] = molecular target: bovine ACE2 extracellular domain (residues 1-740) fused with the Fc domain of mouse IgG (bovine) (UniProt Q58DD0); experiment: SPR
# [2] = molecular target: cat ACE2 extracellular domain (residues 1-740) fused with the Fc domain of mouse IgG (cat) (UniProt Q56H28); experiment: SPR
# Sequence of UniProt Q56H28 (Q56H28 18-740): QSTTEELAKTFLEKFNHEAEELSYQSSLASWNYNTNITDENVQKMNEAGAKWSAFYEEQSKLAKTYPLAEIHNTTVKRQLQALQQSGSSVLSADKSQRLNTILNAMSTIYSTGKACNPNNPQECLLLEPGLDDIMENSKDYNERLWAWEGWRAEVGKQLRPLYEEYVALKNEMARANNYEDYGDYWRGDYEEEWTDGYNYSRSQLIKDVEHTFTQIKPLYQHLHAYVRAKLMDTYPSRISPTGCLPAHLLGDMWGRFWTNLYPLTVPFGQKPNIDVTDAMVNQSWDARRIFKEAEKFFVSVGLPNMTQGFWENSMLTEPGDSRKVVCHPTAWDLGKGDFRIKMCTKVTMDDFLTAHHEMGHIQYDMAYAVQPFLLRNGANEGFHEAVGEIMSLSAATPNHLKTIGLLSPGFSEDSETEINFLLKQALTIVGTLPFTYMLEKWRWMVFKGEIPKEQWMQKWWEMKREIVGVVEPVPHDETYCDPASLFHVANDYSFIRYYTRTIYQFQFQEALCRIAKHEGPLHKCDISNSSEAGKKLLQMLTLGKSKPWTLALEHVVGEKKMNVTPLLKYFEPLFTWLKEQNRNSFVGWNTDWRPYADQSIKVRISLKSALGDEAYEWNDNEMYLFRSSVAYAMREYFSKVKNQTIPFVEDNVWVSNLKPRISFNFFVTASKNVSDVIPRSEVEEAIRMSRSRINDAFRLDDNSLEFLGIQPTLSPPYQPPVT
# Sequence of UniProt Q58DD0 (Q58DD0 18-740): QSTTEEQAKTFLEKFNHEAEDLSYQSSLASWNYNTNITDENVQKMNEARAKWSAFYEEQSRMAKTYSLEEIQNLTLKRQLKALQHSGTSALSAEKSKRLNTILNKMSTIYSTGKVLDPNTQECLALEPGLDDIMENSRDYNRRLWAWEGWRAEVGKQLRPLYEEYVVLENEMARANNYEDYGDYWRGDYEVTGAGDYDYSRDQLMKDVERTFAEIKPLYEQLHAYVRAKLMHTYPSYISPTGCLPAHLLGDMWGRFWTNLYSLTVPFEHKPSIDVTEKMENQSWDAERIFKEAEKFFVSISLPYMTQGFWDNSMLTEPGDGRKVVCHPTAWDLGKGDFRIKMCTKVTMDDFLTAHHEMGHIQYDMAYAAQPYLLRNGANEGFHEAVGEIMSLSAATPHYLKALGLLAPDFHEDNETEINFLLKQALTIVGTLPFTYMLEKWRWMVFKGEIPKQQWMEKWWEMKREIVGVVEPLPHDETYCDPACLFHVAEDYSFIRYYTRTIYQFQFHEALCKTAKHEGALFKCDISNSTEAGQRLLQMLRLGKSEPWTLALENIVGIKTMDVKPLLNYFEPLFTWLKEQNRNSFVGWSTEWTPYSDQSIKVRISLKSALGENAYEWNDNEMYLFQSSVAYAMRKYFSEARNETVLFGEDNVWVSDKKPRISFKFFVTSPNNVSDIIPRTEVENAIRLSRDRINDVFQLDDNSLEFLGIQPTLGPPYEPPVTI
substance,measurement,setting,value
SARS-CoV-2 Delta RBD (residues 319-541) (from UniProt P0DTC2 319-541) (domain or fragment),Kd,[1],71.3 nM
same,Kd,[2],53.4 nM
